Laboratory results reported in patent US20230391832A1, “CO[…]-BINDING POLYPEPTIDES AND METHODS OF USING THE SAME” (Isolere Bio, Inc., priority 2022, published 2023).

Columns and labels:
[1] = system: AAV8 capsids; assay: ELISA cross-reactivity, AAV8 (FIG. 3C); type: binding
Excerpt: (§1) The control sequence (i.e. the human polycystic kidney domain 2, which is known to bind to AAV9 capsids) is labeled “C” in each graph.
(§2) Seven of the variants of Table C were screened for cross-reactivity to AAV2, AAV5, and AAV8.

[2] = system: AAV full capsids vs AAV empty capsids; conditions: cited from earlier work
[3] = system: AAV5 capsids; assay: ELISA cross-reactivity, AAV5 (FIG. 3B); type: binding
Excerpt: as §1, §2

[4] = system: AAV9 capsids; conditions: cited from earlier work
[5] = system: AAV9 full capsids; assay: pH dependence of binding by ELISA (acidic vs neutral elution); conditions: purified polypeptide 1 μM; citric acid pH 3, 4 or 5 vs TBS pH 7.2; FIG. 4
Experimental: The pH dependence of binding of the polypeptides of Table C was evaluated by ELISA. Initially, the bacterial lysates of cultures expressing the polypeptides of Table C were incubated in a citric acid solution (pH 4.0) containing AAV9 capsids for 30 minutes. Subsequently, the solution was washed in Tris-Buffered Saline (TBS), which contained 0.05% TWEEN® 20, at neutral pH.
The five polypeptides were expressed and purified via a C-terminal 6X-His tag. The purified polypeptides (1 μM) were incubated with an ELISA plate that was coated with AAV9 full capsids. The polypeptides were eluted from the ELISA plate with a citric acid solution at pH 3, 4, or 5 (acidic elution) or in the TBS solution described above at pH 7.2 (neutral elution). The ELISA signal from the protein that was still bound to the AAV9 capsid was measured. The post elution % ligand remaining bound to AAV9 was calculated by dividing the signal after pH 3, 4, or 5 incubation by the signal after pH 7.2 incubation, and multiplying by 100.

[6] = system: AAV2 capsids; assay: ELISA cross-reactivity, AAV2 (FIG. 3A); type: binding
Excerpt: as §1, §2

B1: PKD2 control protein: N-terminal His-tagged polycystic kidney domain 2 (PKD2 domain) from the AAV receptor, known to bind AAV9 capsids (protein)
chain: IAIVSPQFQEISLPTTSTVIDGSQSTDDDKIVQYHWEELKGPLREEKISEDTAILKLSKLVPGNYTFSLTVVDSDGATNSTTANLTVNKA
modifications: left off: small tags and cut ends
binding / cross-reactivity to AAV8 [1]: bound poorly or very weakly | discrimination between full and empty capsids (known) [2]: no discrimination between full and empty capsids | binding / cross-reactivity to AAV5 [3]: bound poorly or very weakly | affinity to AAV9 capsids (known) [4]: known affinity to AAV9 capsids | AAV9 binding signal after acidic elution compared to neutral elution [5]: reduced AAV9 binding signal | binding / cross-reactivity to AAV2 [6]: cross reacted strongly
